Laboratory results reported in paper PMC12802937.
One block for each substance: values may come before it.

Legend:
[1] = target: Bre1-LR K506E/K510E (budding yeast) (UniProt Q07457); assay: ITC; Lge1-CT (50–60 μM) injected into Bre1-LR (15 μM); 25°C, 20 mM TRIS (pH 7.5), 300 mM sodium chloride
[2] = target: Bre1-LR K506E/K510E (budding yeast) (UniProt Q07457); assay: ITC; Lge1-CT (50–60 μM) injected into Bre1-LR (15 μM); 25°C, 20 mM TRIS (pH 7.5), 200 mM sodium chloride
[3] = target: Bre1-LR I397K (budding yeast) (UniProt Q07457); assay: as above
[4] = target: Lge1-CT (Lge1 residues 261–332), intein-chitin binding domain (CBD) tag construct (budding yeast) (UniProt Q02796); assay: SPR; Lge1-CT immobilised on a CM5 chip, Bre1-LR flown over; Biacore 8K, 25°C, 20 mM HEPES (pH 7.5), 200 mM sodium chloride, 0.02% Tween 20
[5] = target: Lge1-CT D312K (budding yeast) (UniProt Q02796); assay: as above
[6] = target: Lge1-CT D287K (budding yeast) (UniProt Q02796); assay: as above
[7] = target: Lge1-CT E278K/E282K (budding yeast) (UniProt Q02796); assay: as above

Kd [1]: 6.72 µM | dH [1]: -80 kcal/mol | stoichiometry N [1]: 0.474 | Kd [2]: 0.0419 µM | dH [2]: -35.2 kcal/mol | stoichiometry N [2]: 0.383 | Kd [3]: 0.122 µM | dH [3]: -41.3 kcal/mol | stoichiometry N [3]: 0.18
Substance: Lge1-CT (Lge1 residues 261–332), intein-chitin binding domain (CBD) tag construct (from UniProt Q02796 261-332) (domain or fragment)

Kd [4]: 0.0407 µM
Substance: Bre1-LR I397K (from UniProt Q07457 227-700) (domain or fragment)

Kd [4]: 0.0755 µM
Substance: Bre1-LR D389K/D390K (from UniProt Q07457 227-700) (domain or fragment)

Kd [5]: 0.0253 µM | Kd [6]: 0.145 µM | Kd [7]: 0.0956 µM
Substance: Bre1-LR (Bre1 residues 227–700, LBD and RING domains), 6× histidine tag (from UniProt Q07457 227-700) (domain or fragment)
